Results as given in publication PMC7060200, “Selective Binding of HSC70 and its Co-Chaperones to Structural Hotspots on CFTR” (Scientific Reports, 2020).
Ends that are not written are not given here. * marks the point of attachment. Biotin = O=C1N[C@H]2[C@H](CS[C@H]2CCCCC(=O)*)N1

B1: CFTR peptide 1403-L, biotinylated (library form) (peptide)
peptide: Biotin-GSGSTVILCEHRIEAMLEC
modifications: cysteine pairing not given here
notes: linker; CFTR, 15-mer numbered by its middle residue 1403, from NBD2; source: synthetic peptide (Mimotopes, PepSet purity)
B2: CFTR peptide 1393-L, biotinylated (library form) (peptide)
peptide: Biotin-GSGSRTLKQAFADCTVILC
modifications: cysteine pairing not given here
notes: linker; CFTR, 15-mer numbered by its middle residue 1393, from NBD2; source: synthetic peptide (Mimotopes, PepSet purity)
B3: CFTR peptide 1100-S (peptide, UniProt P13569 1096-1104, looked up)
peptide: LRWFQMRIE
notes: CFTR, 9-mer numbered by its central residue 1100, L4 side of the NT-L4 interface; source: synthetic peptide (Lifetein, unmodified, >85% purity)
B4: CFTR peptide 1403-L, soluble unmodified (peptide, UniProt P13569 1396-1410, looked up)
peptide: TVILCEHRIEAMLEC
notes: CFTR, 15-mer numbered by its middle residue 1403, from NBD2; source: synthetic peptide (Lifetein, unmodified, >85% purity)
B5: CFTR peptide 469-S (peptide, UniProt P13569 465-473, looked up)
peptide: TSLLMVIMG
notes: source: synthetic peptide (Lifetein, unmodified, >85% purity)
B6: CFTR peptide 1398-S (peptide, UniProt P13569 1394-1402, looked up)
peptide: DCTVILCEH
notes: as for B5
B7: CFTR peptide 1393-L, soluble unmodified (peptide, UniProt P13569 1386-1400, looked up)
peptide: RTLKQAFADCTVILC
notes: CFTR, 15-mer numbered by its middle residue 1393, from NBD2; source: synthetic peptide (Lifetein, unmodified, >85% purity)
B8: CFTR peptide 1295-S (peptide, UniProt P13569 1291-1299, looked up)
peptide: QKVFIFSGT
notes: as for B5
B9: CFTR peptide 1293-L, soluble unmodified (peptide, UniProt P13569 1286-1300, looked up)
peptide: FGVIPQKVFIFSGTF
notes: as for B5
B10: CFTR peptide 618-S (peptide, UniProt P13569 614-622, looked up)
peptide: DKILILHEG
notes: as for B5
B11: CFTR peptide 17-S (peptide, UniProt P13569 13-21, looked up)
peptide: SKLFFSWTR
notes: CFTR, 9-mer numbered by its central residue 17, from the NT; source: synthetic peptide (Lifetein, unmodified, >85% purity)

target: T1, DNAJA2 (DJA2), His-tagged (UniProt O60884 1-412); experiment: ELISA; titration of increasing concentrations of chaperone on immobilised biotinylated peptide; HSC70 with ATP; apparent Kd from linearised binding curves; details: both partners purified
T1 construct: DNAJA2, J-domain co-chaperone of HSC70
T1 sequence (O60884 whole entry): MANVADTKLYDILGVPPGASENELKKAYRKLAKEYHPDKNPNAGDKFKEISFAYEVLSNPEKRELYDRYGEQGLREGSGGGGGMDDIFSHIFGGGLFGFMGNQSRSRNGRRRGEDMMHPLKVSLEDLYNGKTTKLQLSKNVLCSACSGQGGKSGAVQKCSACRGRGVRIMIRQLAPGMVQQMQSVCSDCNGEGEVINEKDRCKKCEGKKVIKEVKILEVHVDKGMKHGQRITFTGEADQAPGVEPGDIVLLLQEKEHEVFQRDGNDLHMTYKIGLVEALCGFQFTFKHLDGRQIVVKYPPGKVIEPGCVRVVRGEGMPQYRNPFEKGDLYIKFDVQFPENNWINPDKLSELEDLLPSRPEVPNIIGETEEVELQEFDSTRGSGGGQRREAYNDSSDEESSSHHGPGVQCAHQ

In order of falling Kd:
1. B1  1190 nM
2. B2  1120 nM

target: T2, DNAJA1 (DJA1), His-tagged (UniProt P31689 1-397); experiment: as above; details: both partners purified
T2 construct: DNAJA1, J-domain co-chaperone of HSC70

In order of rising Kd:
1. B1  1490 nM
2. B2  1500 nM

target: T3, HSC70 (HSPA8), His-tagged (UniProt P11142 1-646); experiment: as above; details: both partners purified
T3 construct: HSC70 (HSPA8), the constitutive form of HSP70
T3 sequence (P11142 whole entry): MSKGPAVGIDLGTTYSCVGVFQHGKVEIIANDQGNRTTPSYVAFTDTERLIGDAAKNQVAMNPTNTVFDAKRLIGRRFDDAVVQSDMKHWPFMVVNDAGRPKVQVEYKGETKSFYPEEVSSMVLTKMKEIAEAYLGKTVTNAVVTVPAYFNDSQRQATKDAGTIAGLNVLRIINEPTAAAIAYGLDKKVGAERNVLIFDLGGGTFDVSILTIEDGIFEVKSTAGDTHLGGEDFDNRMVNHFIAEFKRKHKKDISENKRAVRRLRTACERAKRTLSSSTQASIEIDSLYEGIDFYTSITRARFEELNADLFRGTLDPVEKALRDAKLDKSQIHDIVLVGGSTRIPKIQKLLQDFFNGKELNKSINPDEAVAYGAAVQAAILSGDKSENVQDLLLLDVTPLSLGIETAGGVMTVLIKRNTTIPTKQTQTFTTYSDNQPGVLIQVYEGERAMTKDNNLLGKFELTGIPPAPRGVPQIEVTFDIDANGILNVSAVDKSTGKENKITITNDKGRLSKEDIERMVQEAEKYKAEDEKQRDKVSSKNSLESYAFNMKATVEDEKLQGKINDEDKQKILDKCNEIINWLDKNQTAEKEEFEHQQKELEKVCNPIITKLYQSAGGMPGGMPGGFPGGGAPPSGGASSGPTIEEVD

In order of rising Kd:
1. B2  9060 nM
2. B1  11100 nM

target: T1, DNAJA2 (DJA2), His-tagged; experiment: ELISA; competition: 1 μM chaperone mixed with soluble peptide (titrated up to 100 μM, or fixed 100 μM in the screens) and bound to immobilised 1097-L; Kd of the competing peptide from linearised competition curves; details: both partners purified

In order of rising Kd:
1. B4  994 nM
2. B7  1490 nM
3. B6  4450 nM
4. B5  4820 nM
5. B3  8330 nM

target: T2, DNAJA1 (DJA1), His-tagged; experiment: as above; details: both partners purified

In order of rising Kd:
1. B4  9150 nM
2. B7  15700 nM
3. B6  18300 nM

target: T3, HSC70 (HSPA8), His-tagged; experiment: as above; details: both partners purified

In order of rising Kd:
1. B6  900 nM
2. B7  1040 nM
3. B8  1260 nM
4. B5  1560 nM
5. B11  1760 nM
6. B9  2020 nM
7. B4  2660 nM
8. B10  3730 nM
